The values that follow come from patent publication US20240076392A1, “ANTI-CD123 BINDING MOLECULES AND USES THEREOF” (IGM Biosciences, Inc., priority 2021, published 2024).

Test [1] concerns the target T1, human CD123 on CHO cells (Homo sapiens, UniProt P26951).
T1 construct: expressed in transfected cells; host or cells: CHO cells
T1 sequence (P26951 19-378): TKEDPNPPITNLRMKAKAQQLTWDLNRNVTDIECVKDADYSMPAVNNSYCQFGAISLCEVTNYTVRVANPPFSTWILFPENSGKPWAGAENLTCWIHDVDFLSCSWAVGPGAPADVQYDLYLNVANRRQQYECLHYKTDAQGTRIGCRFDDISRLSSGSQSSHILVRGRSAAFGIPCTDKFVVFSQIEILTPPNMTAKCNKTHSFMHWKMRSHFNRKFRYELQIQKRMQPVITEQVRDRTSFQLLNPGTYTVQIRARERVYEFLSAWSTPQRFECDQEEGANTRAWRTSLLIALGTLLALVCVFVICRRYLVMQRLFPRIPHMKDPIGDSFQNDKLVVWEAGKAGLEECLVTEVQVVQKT
The test is described as follows: Flow cytometry binding of IgG antibodies to CD123 expressing CHO cells. The settings on record: 4-parameter logistic model; for Max binding intensity (MFI): flow cytometry. The protocol: To assess the ability of IgG antibodies to bind CD123 on CHO cells expressing the human CD123, a binding assay was performed. CHO cells expressing human CD123 were detached from flask using trypsin. Cells (1×105) were pipetted into wells in a round bottom 96 well plate, washed with FACS Stain Buffer (BD Pharmigen Catalog #554656) and pre-incubated with Fc Block (BD, #564220) for 10 minutes at room temperature followed by incubation at 4° C. with serial dilutions of 32716 or h32716 IgG antibodies for 30 minutes. Cells were washed twice and stained with a mouse anti human kappa antibody conjugated with Alexa647 (Southern Biotech, clone SB81a). Cells were analyzed by flow cytometry. Mean fluorescence intensity (MFI) values were analyzed with GraphPad Prism using a 4-parameter logistic model. All humanized IgG antibodies of 32716 anti-CD123 bound with similar affinities and intensities.
For orientation: A flow cytometer gives signals particle by particle.

Test [2] deals with T2, recombinant human CD123 protein (CD123)-His (Homo sapiens, UniProt P26951).
T2 construct: purchased Acrobio (Acro Biosystems) ILA-H52H6
T2 sequence (P26951 19-378): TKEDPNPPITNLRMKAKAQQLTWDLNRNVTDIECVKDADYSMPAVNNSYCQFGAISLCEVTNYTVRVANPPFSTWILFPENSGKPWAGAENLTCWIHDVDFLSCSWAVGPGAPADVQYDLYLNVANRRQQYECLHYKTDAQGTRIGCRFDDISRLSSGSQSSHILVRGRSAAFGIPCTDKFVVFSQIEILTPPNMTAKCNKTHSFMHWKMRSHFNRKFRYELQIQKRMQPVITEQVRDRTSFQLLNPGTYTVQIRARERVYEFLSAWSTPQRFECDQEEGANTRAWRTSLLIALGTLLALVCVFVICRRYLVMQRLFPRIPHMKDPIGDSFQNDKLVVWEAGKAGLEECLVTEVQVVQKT
The test is described as follows: Biolayer interferometry (Octet) affinity measurement of IgG antibodies. It is filed as binding. The conditions noted are these: IgG format. Here is the method: The binding affinities of parental 32716 IgG and humanized variants with recombinant human CD123 protein (CD123)-His Acrobio #ILA-H52H6) were determined by BLI on an Octet-384 (Sartorius/Fortebio, NY, USA) using Anti-penta His biosensors (Sartorius). PBST (1×PBS+1% BSA+0.05% Tween-20) buffer was used as Antibody/CD123 dilution and sensor hydration buffer. The experiment followed a five-step sequential assay at 24° C. First, biosensors were hydrated for 10 minutes. Samples and buffer were applied in 384-well plate. After initial baseline for 60 s, sensors were loaded with 7 nM hu IL-3R alpha (CD123)-His Acrobio #ILA-H52H6. The biosensors were dipped into PBST for 20 s to reach baseline, then incubated for 420 s with 2-fold serial diluted anti-CD123 antibodies starting at 10 nM for association, followed by 900 s in PBST for dissociation. Results were analyzed by ForteBio Data Analysis software 9.0 using 1:1 global fit model.
For orientation: In BLI a coated tip is dipped into the sample, and binding shifts an interference pattern.

B1: h32716-4-2 IgG: humanized 32716 anti-CD123 IgG, VH SEQ ID NO: 80, VL SEQ ID NO: 83 (antibody, V domains shown)
VH: QVQLVQSGPELKKPGASVKVSCKASGYIFTNYGMNWVRQAPGQGLEWMGWINTYTGESTYSADFKGRFVFSLDTSVSTAYLQISSLKAEDTAVYYCARSGGYDPMDYWGQGTLVTVSS
VL: DIQMTQSPSSLSASVGDRVTITCRASESVDNYGNTFMHWYQQKPGKAPKLLIYRASNLESGVPSRFSGSGSGTDFTFTISSLQPEDIATYYCQQSNEDPPTFGQGTKVEIK
As for B1, in test [1], the HillSlope is recorded as 2.4 and the “Max binding intensity (MFI)” value was found to be 980000 MFI.

B2: h32716-6-2 IgG: humanized 32716 anti-CD123 IgG, VH SEQ ID NO: 82, VL SEQ ID NO: 83 (antibody, V domains shown)
VH: QVQLVQSGPELKKPGASVKVSCKASGYIFTNYGMNWVKQAPGQGFKWMGWINTYTGESTYSADFKGRFVFSLDTSVSTAYLQISSLKAEDTAVYYCARSGGYDPMDYWGQGTLVTVSS
VL: DIQMTQSPSSLSASVGDRVTITCRASESVDNYGNTFMHWYQQKPGKAPKLLIYRASNLESGVPSRFSGSGSGTDFTFTISSLQPEDIATYYCQQSNEDPPTFGQGTKVEIK
For B2, in test [1], the HillSlope was 1.9 and the “Max binding intensity (MFI)” value is 1000000 MFI.

B3: h32716-5-2 IgG: humanized 32716 anti-CD123 IgG, VH SEQ ID NO: 81, VL SEQ ID NO: 83 (antibody, V domains shown)
VH: QVQLVQSGPELKKPGASVKVSCKASGYIFTNYGMNWVKQAPGQGLEWMGWINTYTGESTYSADFKGRFVFSLDTSVSTAYLQISSLKAEDTAVYYCARSGGYDPMDYWGQGTLVTVSS
VL: DIQMTQSPSSLSASVGDRVTITCRASESVDNYGNTFMHWYQQKPGKAPKLLIYRASNLESGVPSRFSGSGSGTDFTFTISSLQPEDIATYYCQQSNEDPPTFGQGTKVEIK
Take B3: in test [1], the HillSlope is listed as 2.2 and the “Max binding intensity (MFI)” value was 1100000 MFI.

B4: h32716-3-1 IgG: humanized 32716 anti-CD123 IgG, VH SEQ ID NO: 78, VL SEQ ID NO: 79 (antibody, V domains shown)
VH: QVQLVQSGAEVKKPGSSVKVSCKASGYIFTNYGMNWVKQAPGQGFKWMGWINTYTGESTYSADFKGRFTFTLDESTSTAYMELSSLRSEDTAVYYCARSGGYDPMDYWGQGTLVTVSS
VL: DIVMTQSPDSLAVSLGERATINCRASESVDNYGNTFMHWYQQKPGQPPKLLIYRASNLESGVPDRFSGSGSGTDFTLTISSLQAEDVAVYYCQQSNEDPPTFGQGTRLEIK
As to B4, in test [2], the “affinity compared to the original murine IgG antibody” value is given as “slightly better affinity”. In test [1], the HillSlope is recorded as 1.9 and the “Max binding intensity (MFI)” value was determined as 940000 MFI.

B5: h32716-2-1 IgG: humanized 32716 anti-CD123 IgG, VH SEQ ID NO: 77, VL SEQ ID NO: 79 (antibody, V domains shown)
VH: QVQLVQSGAEVKKPGSSVKVSCKASGYIFTNYGMNWVKQAPGQGLEWMGWINTYTGESTYSADFKGRFTFTLDESTSTAYMELSSLRSEDTAVYYCARSGGYDPMDYWGQGTLVTVSS
VL: DIVMTQSPDSLAVSLGERATINCRASESVDNYGNTFMHWYQQKPGQPPKLLIYRASNLESGVPDRFSGSGSGTDFTLTISSLQAEDVAVYYCQQSNEDPPTFGQGTRLEIK
Consider B5, for which, in test [1], the HillSlope is recorded as 1.7 and the “Max binding intensity (MFI)” value worked out at 930000 MFI.

B6: h32716-1-1 IgG: humanized 32716 anti-CD123 IgG, VH SEQ ID NO: 76, VL SEQ ID NO: 79 (antibody, V domains shown)
VH: QVQLVQSGAEVKKPGSSVKVSCKASGYIFTNYGMNWVRQAPGQGLEWMGWINTYTGESTYSADFKGRVTITADESTSTAYMELSSLRSEDTAVYYCARSGGYDPMDYWGQGTLVTVSS
VL: DIVMTQSPDSLAVSLGERATINCRASESVDNYGNTFMHWYQQKPGQPPKLLIYRASNLESGVPDRFSGSGSGTDFTLTISSLQAEDVAVYYCQQSNEDPPTFGQGTRLEIK
In the case of B6, in test [1], the HillSlope amounted to 2.0 and the “Max binding intensity (MFI)” value was determined as 950000 MFI.

B7: 32716 IgG: parental (mouse) anti-CD123 antibody 32716 VH/VL (SEQ ID NO: 74/75) cloned into human IgG format (antibody, V domains shown)
VH: QIQLVQSGPELKKPGETVKISCKASGYIFTNYGMNWVKQAPGKSFKWMGWINTYTGESTYSADFKGRFAFSLETSASTAYLHINDLKNEDTATYFCARSGGYDPMDYWGQGTSVTVSS
VL: DIVLTQSPASLAVSLGQRATISCRASESVDNYGNTFMHWYQQKPGQPPKLLIYRASNLESGIPARFSGSGSRTDFTLTINPVEADDVATYYCQQSNEDPPTFGAGTKLELK
modifications: human IgG constant regions
Take B7: in test [1], the HillSlope is 2.2 and the “Max binding intensity (MFI)” value amounted to 910000 MFI.
